Measurements taken from the supplement of paper PMC5998384.

How the values were obtained:
[1] = system: HeLa Kyoto; experiment: solubility in G1/S (NP-40 vs SDS abundance) (log2 ratio); higher = more soluble; details: cell cycle stage: G1/S
[2] = system: HeLa Kyoto; experiment: solubility change mitosis vs G1/S (difference of NP-40 vs SDS log2 ratios) (log2 ratio difference); higher = more soluble in mitosis
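Throughout, for solubility change mitosis vs G1/S (difference of NP-40 vs SDS log2 ratios): synchronized HeLa Kyoto cells (double thymidine block for G1/S, nocodazole release for mitosis), protein amounts in NP-40 versus SDS lysates quantified by mass spectrometry, three biological replicates.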
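Throughout, for solubility in G1/S (NP-40 vs SDS abundance): HeLa Kyoto cells arrested at G1/S by double thymidine block, proteins quantified by TMT10plex mass spectrometry in mild NP-40 versus SDS extracts, three biological replicates.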

Sequence | solubility in G1/S (log2) [1] | solubility change mitosis (log2) [2]
MKEMVGGCCVCSDERGWAENPLVYCDGHACSVAVHQACYGIVQVPTGPWFCRKCESQERAARVRCELCPHKDGALKRTDNGGWAHVVCALYIPEVQFANVLTMEPIVLQYVPHDRFNKTCYICEEQGRESKAASGACMTCNRHGCRQAFHVTCAQMAGLLCEEEVLEVDNVKYCGYCKYHFSKMKTSRHSSGGGGGGAGGGGGSMGGGGSGFISGRRSRSASPSTQQEKHPTHHERGQKKSRKDKERLKQKHKKRPESPPSILTPPVVPTADKVSSSASSSSHHEASTQETSESSRESKGKKSSSHSLSHKGKKLSSGKGVSSFTSASSSSSSSSSSSGGPFQPAVSSLQSSPDFSAFPKLEQPEEDKYSKPTAPAPSAPPSPSAPEPPKADLFEQKVVFSGFGPIMRFSTTTSSSGRARAPSPGDYKSPHVTGSGASAGTHKRMPALSATPVPADETPETGLKEKKHKASKRSRHGPGRPKGSRNKEGTGGPAAPSLPSAQLAGFTATAASPFSGGSLVSSGLGGLSSRTFGPSGSLPSLSLESPLLGAGIYTSNKDPISHSGGMLRAVCSTPLSSSLLGPPGTSALPRLSRSPFTSTLPSSSASISTTQVFSLAGSTFSLPSTHIFGTPMGAVNPLLSQAESSHTEPDLEDCSFRCRGTSPQESLSSMSPISSLPALFDQTASAPCGGGQLDPAAPGTTNMEQLLEKQGDGEAGVNIVEMLKALHALQKENQRLQEQILSLTAKKERLQILNVQLSVPFPALPAALPAANGPVPGPYGLPPQAGSSDSLSTSKSPPGKSSLGLDNSLSTSSEDPHSGCPSRSSSSLSFHSTPPPLPLLQQSPATLPLALPGAPAPLPPQPQNGLGRAPGAAGLGAMPMAEGLLGGLAGSGGLPLNGLLGGLNGAAAPNPASLSQAGGAPTLQLPGCLNSLTEQQRHLLQQQEQQLQQLQQLLASPQLTPEHQTVVYQMIQQIQQKRELQRLQMAGGSQLPMASLLAGSSTPLLSAGTPGLLPTASAPPLLPAGALVAPSLGNNTSLMAAAAAAAAVAAAGGPPVLTAQTNPFLSLSGAEGSGGGPKGGTADKGASANQEKG [MLLT6] | -1.14 | 0.828
MKLLSLVAVVGCLLVPPAEANKSSEDIRCKCICPPYRNISGHIYNQNVSQKDCNCLHVVEPMPVPGHDVEAYCLLCECRYEERSTTTIKVIIVIYLSVVGALLLYMAFLMLVDPLIRKPDAYTEQLHNEEENEDARSMAAAAASLGGPRANTVLERVEGAQQRWKLQVQEQRKTVFDRHKMLS [TMEM9] | 0.254 | 0.292
MKPVHERSQECLPPKKRDLPVTSEDMGRTTSCSTNHTPSSDASEWSRGVVVAGQSQAGARVSLGGDGAEAITGLTVDQYGMLYKVAVPPATFSPTGLPSVVNMSPLPPTFNVASSLIQHPGIHYPPLHYAQLPSTSLQFIGSPYSLPYAVPPNFLPSPLLSPSANLATSHLPHFVPYASLLAEGATPPPQAPSPAHSFNKAPSATSPSGQLPHHSSTQPLDLAPGRMPIYYQMSRLPAGYTLHETPPAGASPVLTPQESQSALEAAAANGGQRPRERNLVRRESEALDSPNSKGEGQGLVPVVECVVDGQLFSGSQTPRVEVAAPAHRGTPDTDLEVQRVVGALASQDYRVVAAQRKEEPSPLNLSHHTPDHQGEGRGSARNPAELAEKSQARGFYPQSHQEPVKHRPLPKAMVVANGNLVPTGTDSGLLPVGSEILVASSLDVQARATFPDKEPTPPPITSSHLPSHFMKGAIIQLATGELKRVEDLQTQDFVRSAEVSGGLKIDSSTVVDIQESQWPGFVMLHFVVGEQQSKVSIEVPPEHPFFVYGQGWSSCSPGRTTQLFSLPCHRLQVGDVCISISLQSLNSNSVSQASCAPPSQLGPPRERPERTVLGSRELCDSEGKSQPAGEGSRVVEPSQPESGAQACWPAPSFQRYSMQGEEARAALLRPSFIPQEVKLSIEGRSNAGK [ATXN1L] | 0.172 | -0.12
